# Assay results as given in US20230407373A1 (priority 2020, published 2023).
# Where two headings read alike, the source gives them in different places.
# Key:
# Assay type in all cases: binding
# SARS-CoV-2 gRNA = settings: for target (unweighted spectral count of the protein in the RNP capture): LC-MS/MS, Probe I sample (first 199 lines of Table 2)
# [1] = test system: SARS-CoV-2 gRNA and sgRNAs; settings: for background (unweighted spectral count in control): no-probe control pull-down, used as background for Probe II
# gRNA of HCoV-OC43 = settings: for target (spectral count) / background (spectral count): type g_36_m, 36 hpi, Probe I; for target (spectral count): HCoV-OC43-infected HCT-8 cells; for background (spectral count): uninfected-probe control; for target (spectral count, OC43 Probe I RNP capture) / background (spectral count, no-probe control): type n_48_v: 48 hours post-infection; for target (spectral count, OC43 Probe I RNP capture): infected cells, unweighted spectral count; for background (spectral count, no-probe control): no-probe control on infected cells
# HCoV-OC43 gRNA and sgRNA = settings: for target (unweighted spectral count, OC43 Probe II capture) / target (spectral count) / background (spectral count): 36 hpi; for target (unweighted spectral count, OC43 Probe II capture): type n_36_v, FDR<10%; for target (unweighted spectral count, OC43 Probe II capture) / target (unweighted spectral count): tested against no-probe control; for target (unweighted spectral count): OC43 Probe II, infected cells; for target (unweighted spectral count, OC43 Probe II) / background (unweighted spectral count, no-probe control): type n_48_v, 48 hpi; for target (unweighted spectral count, OC43 Probe II): OC43 Probe II capture on infected cells; for background (unweighted spectral count, no-probe control): no-probe control on infected cells; for target (spectral count) / background (spectral count): type s_36_m, Probe II; for target (spectral count): HCoV-OC43-infected HCT-8 cells; for background (spectral count): uninfected-probe control
Molecule,enrichment in SARS-CoV-2 Probe I RNP capture (SARS-CoV-2 gRNA),target (unweighted spectral count of the protein in the RNP capture) (SARS-CoV-2 gRNA),enrichment in SARS-CoV-2 Probe II RNP capture [1],target (spectral count) (gRNA of HCoV-OC43),background (spectral count) (gRNA of HCoV-OC43),"target (spectral count, OC43 Probe I RNP capture) (gRNA of HCoV-OC43)","background (spectral count, no-probe control) (gRNA of HCoV-OC43)","target (unweighted spectral count, OC43 Probe II capture) (HCoV-OC43 gRNA and sgRNA)",target (unweighted spectral count) (HCoV-OC43 gRNA and sgRNA; 12 hpi (type n_12_v)),target (unweighted spectral count) (HCoV-OC43 gRNA and sgRNA; 24 hpi (type n_24_v)),"target (unweighted spectral count, OC43 Probe II) (HCoV-OC43 gRNA and sgRNA)","background (unweighted spectral count, no-probe control) (HCoV-OC43 gRNA and sgRNA)",target (spectral count) (HCoV-OC43 gRNA and sgRNA),background (spectral count) (HCoV-OC43 gRNA and sgRNA),background (unweighted spectral count in control) [1]
"MATR3: host protein, UniProt P43243 (protein, UniProt P43243 2-847, looked up) Matrin-3: SKSFQQSSLSRDSQGHGRDLSAAGIGLLAAATQSLSMPASLGRMNQGTARLASLMNLGMSSSLNQQGAHSALSSASTSSHNLQSIFNIGSRGPLPLSSQHRGDADQASNILASFGLSARDLDELSRYPEDKITPENLPQILLQLKRRRTEEGPTLSYGRDGRSATREPPYRVPRDDWEEKRHFRRDSFDDRGPSLNPVLDYDHGSRSQESGYYDRMDYEDDRLRDGERCRDDSFFGETSHNYHKFDSEYERMGRGPGPLQERSLFEKKRGAPPSSNIEDFHGLLPKGYPHLCSICDLPVHSNKEWSQHINGASHSRRCQLLLEIYPEWNPDNDTGHTMGDPFMLQQSTNPAPGILGPPPPSFHLGGPAVGPRGNLGAGNGNLQGPRHMQKGRVETSRVVHIMDFQRGKNLRYQLLQLVEPFGVISNHLILNKINEAFIEMATTEDAQAAVDYYTTTPALVFGKPVRVHLSQKYKRIKKPEGKPDQKFDQKQELGRVIHLSNLPHSGYSDSAVLKLAEPYGKIKNYILMRMKSQAFIEMETREDAMAMVDHCLKKALWFQGRCVKVDLSEKYKKLVLRIPNRGIDLLKKDKSRKRSYSPDGKESPSDKKSKTDGSQKTESSTEGKEQEEKSGEDGEKDTKDDQTEQEPNMLLESEDELLVDEEEAAALLESGSSVGDETDLANLGDVASDGKKEPSDKAVKKDGSASAAAKKKLKKVDKIEELDQENEAALENGIKNEENTEPGAESSENADDPNKDTSENADGQSDENKDDYTIPDEYRIGPYQPNVPVGIDYVIPKTGFYCKLCSLFYTNEEVAKNTHCSSLPHYQKLKKFLNKLAEERRQKKET",found in the SARS-CoV-2 experiments,56,found in the SARS-CoV-2 experiments,57,4,41,3,39,11,20,39,3,39,4,
"MOV10: host protein, UniProt Q9HCE1 (protein, UniProt Q9HCE1 1-1003, looked up) Helicase MOV-10: MPSKFSCRQLREAGQCFESFLVVRGLDMETDRERLRTIYNRDFKISFGTPAPGFSSMLYGMKIANLAYVTKTRVRFFRLDRWADVRFPEKRRMKLGSDISKHHKSLLAKIFYDRAEYLHGKHGVDVEVQGPHEARDGQLLIRLDLNRKEVLTLRLRNGGTQSVTLTHLFPLCRTPQFAFYNEDQELPCPLGPGECYELHVHCKTSFVGYFPATVLWELLGPGESGSEGAGTFYIARFLAAVAHSPLAAQLKPMTPFKRTRITGNPVVTNRIEEGERPDRAKGYDLELSMALGTYYPPPRLRQLLPMLLQGTSIFTAPKEIAEIKAQLETALKWRNYEVKLRLLLHLEELQMEHDIRHYDLESVPMTWDPVDQNPRLLTLEVPGVTESRPSVLRGDHLFALLSSETHQEDPITYKGFVHKVELDRVKLSFSMSLLSRFVDGLTFKVNFTFNRQPLRVQHRALELTGRWLLWPMLFPVAPRDVPLLPSDVKLKLYDRSLESNPEQLQAMRHIVTGTTRPAPYIIFGPPGTGKTVTLVEAIKQVVKHLPKAHILACAPSNSGADLLCQRLRVHLPSSIYRLLAPSRDIRMVPEDIKPCCNWDAKKGEYVFPAKKKLQEYRVLITTLITAGRLVSAQFPIDHFTHIFIDEAGHCMEPESLVAIAGLMEVKETGDPGGQLVLAGDPRQLGPVLRSPLTQKHGLGYSLLERLLTYNSLYKKGPDGYDPQFITKLLRNYRSHPTILDIPNQLYYEGELQACADVVDRERFCRWAGLPRQGFPIIFHGVMGKDEREGNSPSFFNPEEAATVTSYLKLLLAPSSKKGKARLSPRSVGVISPYRKQVEKIRYCITKLDRELRGLDDIKDLKVGSVEEFQGQERSVILISTVRSSQSFVQLDLDFNLGFLKNPKRFNVAVTRAKALLIIVGNPLLLGHDPDWKVFLEFCKENGGYTGCPFPAKLDLQQGQNLLQGLSKLSPSTSGPHSHDYLPQEREGEGGLSLQVEPEWRNEL",found in the SARS-CoV-2 experiments,16,found in the SARS-CoV-2 experiments,26,1,25,1,24,,35,37,1,24,1,1
"FAM120A: host protein, UniProt Q9NZB2 (protein, UniProt Q9NZB2 1-1118, looked up) Constitutive coactivator of …: MGVQGFQDYIEKHCPSAVVPVELQKLARGSLVGGGRQRPPQTPLRLLVDADNCLHRLYGGFYTDWVSGGQWNHMLGYLAALAKACFGGNIELFVFFNGALEKARLHEWVKRQGNERQTAQQIVSHVQNKGTPPPKVWFLPPVCMAHCIRLALIRFHVKVAQSIEDHHQEVIGFCRENGFHGLVAYDSDYALCNIPYYFSAHALKLSRNGKSLTTSQYLMHEVAKQLDLNPNRFPIFAALLGNHILPDEDLASFHWSLLGPEHPLASLKVRAHQLVLPPCDVVIKAVADYVRNIQDTSDLDAIAKDVFQHSQSRTDDKVIRFKRAIGYYSATSKPMSFHPPHYLAARPGPFGMPGMVPPHVPPQMLNIPQTSLQAKPVAPQVPSPGGAPGQGPYPYSLSEPAPLTLDTSGKNLTEQNSYSNIPHEGKHTPLYERSSPINPAQSGSPNHVDSAYFPGSSTSSSSDNDEGSGGATNHISGNKIGWEKTGSHSEPQARGDPGDQTKAEGSSTASSGSQLAEGKGSQMGTVQPIPCLLSMPTRNHMDITTPPLPPVAPEVLRVAEHRHKKGLMYPYIFHVLTKGEIKIAVSIEDEANKDLPPAALLYRPVRQYVYGVLFSLAESRKKTERLAFRKNRLPPEFSPVIIKEWAAYKGKSPQTPELVEALAFREWTCPNLKRLWLGKAVEDKNRRMRAFLACMRSDTPAMLNPANVPTHLMVLCCVLRYMVQWPGARILRRQELDAFLAQALSPKLYEPDQLQELKIENLDPRGIQLSALFMSGVDMALFANDACGQPIPWEHCCPWMYFDGKLFQSKLLKASREKTPLIDLCDGQADQAAKVEKMRQSVLEGLSFSRQSHTLPFPPPPALPFYPASAYPRHFGPVPPSQGRGRGFAGVCGFGGPYGETVATGPYRAFRVAAASGHCGAFSGSDSSRTSKSQGGVQPIPSQGGKLEIAGTVVGHWAGSRRGRGGRGPFPLQVVSVGGPARGRPRGVISTPVIRTFGRGGRYYGRGYKNQAAIQGRPPYAASAEEVAKELKSKSGESKSSAMSSDGSLAENGVMAEEKPAPQMNGSTGDARAPSHSESALNNDSKTCNTNPHLNALSTDSACRREAALEAAVLNKEE",found in the SARS-CoV-2 experiments,,found in the SARS-CoV-2 experiments,23,2,29,2,18,4,18,33,2,19,2,
"NONO: host protein, UniProt Q15233 (protein, UniProt Q15233 1-471, looked up) Non-POU domain-containing …: MQSNKTFNLEKQNHTPRKHHQHHHQQQHHQQQQQQPPPPPIPANGQQASSQNEGLTIDLKNFRKPGEKTFTQRSRLFVGNLPPDITEEEMRKLFEKYGKAGEVFIHKDKGFGFIRLETRTLAEIAKVELDNMPLRGKQLRVRFACHSASLTVRNLPQYVSNELLEEAFSVFGQVERAVVIVDDRGRPSGKGIVEFSGKPAARKALDRCSEGSFLLTTFPRPVTVEPMDQLDDEEGLPEKLVIKNQQFHKEREQPPRFAQPGSFEYEYAMRWKALIEMEKQQQDQVDRNIKEAREKLEMEMEAARHEHQVMLMRQDLMRRQEELRRMEELHNQEVQKRKQLELRQEEERRRREEEMRRQQEEMMRRQQEGFKGTFPDAREQEIRMGQMAMGGAMGINNRGAMPPAPVPAGTPAPPGPATMMPDGTLGLTPPTTERFGQAATMEGIGAIGGTPPAFNRAAPGAEFAPNKRRRY",found in the SARS-CoV-2 experiments,,found in the SARS-CoV-2 experiments,28,6,36,3,23,4,14,31,3,23,4,1
